The values below come from patent US20020115606A1 (MYRIAD GENETICS, published 2002).

B7: CIB amino acids 1-191 (other, UniProt P04386 1-147, looked up)
chain: MKLLSSIEQACDICRLKKLKCSKEKPKCAKCLKNNWECRYSPKTKRSPLTRAHLTEVESRLERLEQLFLLIFPREDLDMILKMDSLQDIKALLTGLFVQDNVNKDAVTDRLASVETDMPLTLRQHRISATSSSEESSNKGQRQLTVSMGGSGSRLSKELLAEYQDLTFLTKQEILLAHRRFCELLPQEQRSVESSLRAQVPFEQILSLPELKANPFKERICRVFSTSPAKDSLSFEDFLDLLSVFSDTATPDIKSHYAFRIFDFDDDGTLNREDLSRLVNCLTGEGEDTRLSASEMKQLIDNILEESDIDRDGTINLSEFQHVISRSPDFASSFKIVL

Assay [1] has as its target T1, PN7740 amino acids 27-322 (yeast; human, UniProt P04386 768-881).
T1 construct: also called novel phosphatase
T1 sequence: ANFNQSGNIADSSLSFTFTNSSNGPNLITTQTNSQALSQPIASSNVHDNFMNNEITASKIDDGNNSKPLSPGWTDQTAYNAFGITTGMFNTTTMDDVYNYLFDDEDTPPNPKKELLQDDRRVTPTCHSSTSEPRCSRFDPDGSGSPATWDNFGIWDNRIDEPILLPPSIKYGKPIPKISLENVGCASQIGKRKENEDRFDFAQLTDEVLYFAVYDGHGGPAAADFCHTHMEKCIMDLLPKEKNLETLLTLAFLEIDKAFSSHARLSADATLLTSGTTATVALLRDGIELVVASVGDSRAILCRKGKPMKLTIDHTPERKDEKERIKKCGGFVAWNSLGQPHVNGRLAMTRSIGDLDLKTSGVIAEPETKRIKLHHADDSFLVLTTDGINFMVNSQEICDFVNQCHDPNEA
Description: yeast two-hybrid. An excerpt: (§1) The principles and methods of the yeast two-hybrid systems have been described in detail (Bartel and Fields, 1997). The following is thus a description of the particular procedure that was used, which was applied to all proteins.
(§2) The cDNA encoding the bait protein was generated by PCR from brain cDNA. Gene-specific primers were synthesized with appropriate tails added at their 5′ ends to allow recombination into the vector pGBTQ. The tail for the forward primer was 5′-[…]-3′ (SEQ ID NO: 1) and the tail for the reverse primer was 5′-[…]-3′ (SEQ ID NO:2). […] The new construct was selected directly in the yeast J693 for its ability to drive tryptophane synthesis (genotype of this strain: Mat α, ade2, his3, leu2, trp1, URA3::GAL1-lacZ LYS2::GAL1-HIS3 gal4del gal80del cyhR2). In these yeast cells, the bait is produced as a C-terminal fusion protein with the DNA binding domain of the transcription factor Gal4 (amino acids 1 to 147). A total human brain (person) cDNA library cloned into the yeast expression vector pACT2 was purchased from Clontech (human brain […] cDNA, cat. # HL4004AH), transformed into the yeast strain J692 (genotype of this strain: Mat α, ade2, his3, leu2, trp1, URA3::GAL1-lacZ LYS2::GAL1-HIS3 gal4del gal80del cyhR2), and selected for the ability to drive leucine synthesis. In these yeast cells, each cDNA is expressed as a fusion protein with the transcription activation domain of the transcription factor Gal4 (amino acids 768 to 881) and a 9 amino acid hemagglutinin epitope tag. J693 cells […] expressing the bait were then mated with J692 cells […] expressing proteins from the brain library. The resulting diploid yeast cells expressing proteins interacting with the bait protein were selected for the ability to synthesize tryptophane, leucine, histidine, and β-galactosidase.

In assay [2] the target is glyceraldehyde-3-phosphate dehydrogenase (GAPDH) amino acids 2-190 (yeast; human, UniProt P04386 768-881; P04406 2-190). Description: yeast two-hybrid.
From the text: as §1, §2

The target in assay [3] is T2, Focal adhesion kinase 2 (FAK2) amino acids 673-866 (yeast, UniProt P04386 1-147; Q14289 673-866).
T2 construct: also called PYK2; CAKβ
Put plainly: yeast two-hybrid.
From the text: as §1, §2

The target in assay [4] is T3, glutamine synthase (GS) amino acids 49-212 (yeast; human, UniProt P04386 768-881; P15104 49-212).
T3 construct: also called glutamine synthetase; glutamate ammonia ligase
Put plainly: yeast two-hybrid.
From the text: as §1, §2

In the assay “CIB amino acids 1-191” the target is B7. Put plainly: yeast two-hybrid, Gal4, human brain cDNA library.
Assay [5] addresses Focal adhesion kinase (FAK) amino acids 724-1052 (yeast, UniProt P04386 1-147; Q05397 724-1052). Put plainly: yeast two-hybrid.
From the text: as §1, §2

For assay [6], the target named is T4, mixed lineage kinase 2 (MLK2) amino acids 305-549 (yeast; human, UniProt P04386 768-881; Q02779 305-549).
T4 construct: also called MST; MAP3K10
Description: yeast two-hybrid.
From the text: as §1, §2

In assay [7] the target is phosphodiesterase 9A (PDE-9A) amino acids 269-593 (yeast; human, UniProt P04386 768-881; O76083 269-593). Description: yeast two-hybrid.
From the text: as §1, §2

Assay [8] addresses T5, Mint1 amino acids 447-758 (yeast, UniProt P04386 1-147; Q02410 447-758).
T5 construct: also called X11 alpha
Description: yeast two-hybrid.
From the text: as §1, §2

The target of assay [9] is transthyretin (TTH) amino acids 7-148 (yeast; human, UniProt P04386 768-881; P02766 7-147). Put plainly: yeast two-hybrid.
From the text: as §1, §2

B1: Fe65 amino acids 360-552 (first phosphotyrosine binding domain, PTB) (other, UniProt P04386 1-147, looked up)
chain: MKLLSSIEQACDICRLKKLKCSKEKPKCAKCLKNNWECRYSPKTKRSPLTRAHLTEVESRLERLEQLFLLIFPREDLDMILKMDSLQDIKALLTGLFVQDNVNKDAVTDRLASVETDMPLTLRQHRISATSSSEESSNKGQRQLTVSPRNTNPGIKCFAVRSLGWVEMTEEELAPGRSSVAVNNCIRQLSYHKNNLHDPMSGGWGEGKDLLLQLEDETLKLVEPQSQALLHAQPIISIRVWGVGRDSGRERDFAYVARDKLTQMLKCHVFRCEAPAKNIATSLHEICSKIMAERRNARCLVNGLSLDHSKLVDVPFQVEFPAPKNELVQKFQVYYLGNVP
Consider B1, for which, in assay [1], the binding result was “binds”.

B2: Presenilin 2 (PS2) amino acids 1-97 (other, UniProt P04386 1-147, looked up)
chain: MKLLSSIEQACDICRLKKLKCSKEKPKCAKCLKNNWECRYSPKTKRSPLTRAHLTEVESRLERLEQLFLLIFPREDLDMILKMDSLQDIKALLTGLFVQDNVNKDAVTDRLASVETDMPLTLRQHRISATSSSEESSNKGQRQLTVSMLTFMASDSEEEVCDERTSLMSAESPTPRSCQEGRQGPEDGENTAQWRSQENEEDGEEDPDRYVCSGVPGRPPGLEEELTLKYGAKHVIMLFVPVTL
notes: also called Presinilin 2
As to B2, the binding result in [2] is recorded as “binds”.

B3: SUR1, type-1 sulfonylurea receptor, amino acids 121-270 (other, yeast;human, UniProt P04386 768-881, looked up, not shown: small tags and cut ends)
chain: ANFNQSGNIADSSLSFTFTNSSNGPNLITTQTNSQALSQPIASSNVHDNFMNNEITASKIDDGNNSKPLSPGWTDQTAYNAFGITTGMFNTTTMDDVYNYLFDDEDTPPNPKKEVVYYHNIETSNFPKLLIALLVYWTLAFITKTIKFVKFLDHAIGFSQLRFCLTGLLVILYGMLLLVEVNVIRVRRYIFFKTPREVKPPEDLQDLGVRFLQPFVNLLSKGTYWWMNAFIKTAHKKPIDLRAIGKLPIAMRALTNYQRLCEAF
B3: the binding result in assay [3] was “binds”.

B4: Mint1 amino acids 739-837 (other, UniProt P04386 1-147, looked up)
chain: MKLLSSIEQACDICRLKKLKCSKEKPKCAKCLKNNWECRYSPKTKRSPLTRAHLTEVESRLERLEQLFLLIFPREDLDMILKMDSLQDIKALLTGLFVQDNVNKDAVTDRLASVETDMPLTLRQHRISATSSSEESSNKGQRQLTVSIVRCPPVTTVLIRRPDLRYQLGFSVQNGIICSLMRGGIAERGGVRVGHRIIEINGQSVVATPHEKIVHILSNAVGEIHMKTMPAAMYRLLTAQEQPVYI
notes: also called X11 alpha
As for B4, the binding result in [4] was “binds”.

B5: stearoyl CoA desaturase (SCD2) amino acids 320-359 (other)
chain: ANFNQSGNIADSSLSFTFTNSSNGPNLITTQTNSQALSQPIASSNVHDNFMNNEITASKIDDGNNSKPLSPGWTDQTAYNAFGITTGMFNTTTMDDVYNYLFDDEDTPPNPKKETTFFIDCMAALGLAYDRKKVSKAAILARIKRTGDGNYKSG
notes: range 768-881;range 320-359; also called Delta(9) desaturase
As to B5, the binding result with CIB amino acids 1-191 is given as “binds”.

B6: glutathione-S-transferase M3 (GST trans. M3) amino acids 15-226 (other, yeast;human, UniProt P04386 768-881, looked up, not shown: small tags and cut ends)
chain: ANFNQSGNIADSSLSFTFTNSSNGPNLITTQTNSQALSQPIASSNVHDNFMNNEITASKIDDGNNSKPLSPGWTDQTAYNAFGITTGMFNTTTMDDVYNYLFDDEDTPPNPKKERGLAHAIRLLLEFTDTSYEEKRYTCGEAPDYDRSQWLDVKFKLDLDFPNLPYLLDGKNKITQSNAILRYIARKHNMCGETEEEKIRVDIIENQVMDFRTQLIRLCYSSDHEKLKPQYLEELPGQLKQFSMFLGKFSWFAGEKLTFVDFLTYDILDQNRIFDPKCLDEFPNLKAFMCRFEALEKIAAYLQSDQFCKMPINNKMAQWGNKPVC
In the case of B6, the binding result in [5] is “binds”. Consider B7, for which the binding result in assay [6] is on record as “binds”.

B8: casein kinase II (CK2) amino acids 264-351 (other, yeast;human, UniProt P04386 768-881, looked up, not shown: small tags and cut ends)
chain: ANFNQSGNIADSSLSFTFTNSSNGPNLITTQTNSQALSQPIASSNVHDNFMNNEITASKIDDGNNSKPLSPGWTDQTAYNAFGITTGMFNTTTMDDVYNYLFDDEDTPPNPKKEIDLDPHFNDILGQHSRKRWENFIHSENRHLVSPEALDLLDKLLRYDHQQRLTAKEAMEHPYFYPVVKEQSQPCADNAVLSSGLTAAR
Consider B8, for which the binding result in assay [5] is on record as “binds”.

B9: Mint2 amino acids 1-210 (other, UniProt P04386 1-147, looked up)
chain: MKLLSSIEQACDICRLKKLKCSKEKPKCAKCLKNNWECRYSPKTKRSPLTRAHLTEVESRLERLEQLFLLIFPREDLDMILKMDSLQDIKALLTGLFVQDNVNKDAVTDRLASVETDMPLTLRQHRISATSSSEESSNKGQRQLTVSMAHRKLESVGSGMLDHRVRPGPVPHSQEPESEDMELPLEGYVPEGLELAALRPESPAPEEQECHNHSPDGDSSSDYVNNTSEEEDYDEGLPEEEEGITYYIRYCPEDDSYLEGMDCNGEEYLAHSAHPVDTDECQEAVEEWTDSAGPHPHGHEAEGSQDYPDGQLPIPEDEPSVLEAHDQEEDGHYCASKEGYQDYYPEEANGNTGASPY
notes: also called X11 beta
Consider B9, for which the binding result in [7] is recorded as “binds”.

B10: KIAA0427 amino acids 364-589 (other, yeast;human, UniProt P04386 768-881, looked up, not shown: small tags and cut ends)
chain: ANFNQSGNIADSSLSFTFTNSSNGPNLITTQTNSQALSQPIASSNVHDNFMNNEITASKIDDGNNSKPLSPGWTDQTAYNAFGITTGMFNTTTMDDVYNYLFDDEDTPPNPKKETTTPQQNKMDKLIEILNSMRNNSSDVDTKLTTFMEEAQNSTNSEEMLGEIVRTIYQKAVSDRSFAFTAAKLCDKMALFMVEGTKFRSLLLNMLQKDFTVREELQQQDVERWLGFITFLCEVFGTMRSSTGEPFRVLVCPIYTCLRELLQSQDVKEDAVLCCSMELQSTGRLLEEQLPEMMTELLASARDKMLCPSESMLTRSLLLEVIELHANSWNPLTPPITQYY
Take B10: the binding result in assay [8] was “binds”.

B11: BAT3 (HLA-B associated transcript) amino acids 740-1040 (other, UniProt P04386 1-147, looked up)
chain: MKLLSSIEQACDICRLKKLKCSKEKPKCAKCLKNNWECRYSPKTKRSPLTRAHLTEVESRLERLEQLFLLIFPREDLDMILKMDSLQDIKALLTGLFVQDNVNKDAVTDRLASVETDMPLTLRQHRISATSSSEESSNKGQRQLTVSFEPGADGALGFFGALLSLLCQNFSMVDVVMLLHGHFQPLQRLQPQLRSFFHQHYLGGQEPTPSNIRMATHTLITGLEEYVRESFSLVQVQPGVDIIRTNLEFLQEQFNSIAAHVLHCTDSGFGARLLELCNQGLFECLALNLHCLGGQQMELAAVINGRIRRMSRGVNPSLVSWLTTMMGLRLQVVLEHMPVGPDAILRYVRRVGDPPQPLPEEPMEVQGAERASPEPQRENASPAPGTTAEEAMSRGPPPAPEGGSRDEQDGASAETEPWAAAVPPEWVPIIQQDIQSQRKVKPQPPLSD
Regarding B11, the binding result in assay [9] was “binds”.
